Experiment [1] addresses T1, LRRC25(21-40) biotin peptide (human, not fully specified; N-terminal NH2; C-terminal GGK-Biotin; native Cys changed to Ser).
T1 peptide: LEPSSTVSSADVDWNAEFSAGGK
Kind of experiment: peptide ELISA. Here is the method: (§1) To establish if functional chimera anti-LRRC25 antibodies recognize particular regions of LRRC25, ELISA experiments were performed using 10 plate-immobilized 16- to 20-mer overlapping LRRC25(ECD) biotin peptides (Table 7). Biotinylated human LRRC25-His served as a positive control. A typical ELISA was performed by coating overnight at 4° C., 3 ug/mL/25 ul per well of streptavidin (Jackson Immunoresearch, Cat. #016-030-084) in PBS in half-area high binding microtiter wells (Corning Cat. #3690). […] Biotin peptides or biotinylated human LRRC25-His protein were added in duplicate (2 ug/mL/25 ul per well) in assay buffer (blocking buffer containing 0.05% tween 20) and the plate incubated for 45 min at 37° C. The plate was washed as before, 20 nM anti-LRRC25 antibodies in assay buffer added in duplicate into appropriate wells, and the plate incubated as before. The plate was washed and HRP-conjugated secondary antibody in assay buffer added [25 ul per well; goat anti-human IgG (Jackson Immunoresearch, Cat. #715-035-150)], and incubated as before. Antibody bound to plate-immobilized peptide(s) or protein was determined at A450 nm using HRP substrate (3,3′,5,5′-tetramethylbenzidine (TMB); eBioscience; Cat. #00-4201-56); 100 μl/well).
(In general: ELISA stands for enzyme-linked immunosorbent assay.)

The target in experiment [2] is T2, LRRC25(36-55) biotin peptide (human, not fully specified; N-terminal NH2; C-terminal GGK-Biotin; native Cys changed to Ser).
T2 peptide: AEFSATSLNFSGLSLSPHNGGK
Kind of experiment: peptide ELISA. Here is the method: as §1

In experiment [3] the target is T3, LRRC25(51-69) biotin peptide (human, not fully specified; N-terminal acetyl; C-terminal GGK-Biotin).
T3 peptide: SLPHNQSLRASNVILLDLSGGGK
Kind of experiment: peptide ELISA. Here is the method:
as §1

The target in experiment [4] is T4, LRRC25(66-85) biotin peptide (human, not fully specified; N-terminal acetyl; C-terminal GGK-Biotin).
T4 peptide: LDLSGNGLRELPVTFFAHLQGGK
In words: peptide ELISA. Here is the method: as §1

For experiment [5], the target named is T5, LRRC25(81-100) biotin peptide (human, not fully specified; N-terminal acetyl; C-terminal GGK-Biotin).
T5 peptide: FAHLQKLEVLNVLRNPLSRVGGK
Kind of experiment: peptide ELISA. Here is the method: as §1

Experiment [6] addresses T6, LRRC25(96-115) biotin peptide (human, not fully specified; N-terminal acetyl; C-terminal GGK-Biotin; native Cys changed to Ser).
T6 construct: also called Biotin LRRC25 (96-115) peptide
T6 peptide: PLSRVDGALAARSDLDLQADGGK
Kind of experiment: peptide ELISA. Here is the method:
as §1

The target in experiment [7] is T7, LRRC25(111-130) biotin peptide (human, not fully specified; N-terminal acetyl; C-terminal GGK-Biotin; native Cys changed to Ser).
T7 peptide: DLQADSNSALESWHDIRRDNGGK
Kind of experiment: peptide ELISA. Here is the method: as §1

Experiment [8] deals with T8, LRRC25(126-145) biotin peptide (human, not fully specified; N-terminal acetyl; C-terminal GGK-Biotin; native Cys changed to Ser).
T8 peptide: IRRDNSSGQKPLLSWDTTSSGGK
In words: peptide ELISA. Here is the method:
as §1

The target in experiment [9] is T9, LRRC25(141-159) biotin peptide (human, not fully specified; N-terminal acetyl; C-terminal GGK-Biotin; native Cys changed to Ser).
T9 peptide: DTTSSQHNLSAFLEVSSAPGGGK
In words: peptide ELISA. Here is the method: as §1

In experiment [10] the target is T10, LRRC25(150-165) biotin peptide (human).
T10 peptide: Ac-SAFLEVSSAPGLASATGG-{Biotin′}
Kind of experiment: peptide ELISA. Here is the method: as §1

The target of experiment [11] is T11, biotinylated human LRRC25-His protein (human, UniProt Q8N386 21-165, biotinylated (sites not given)).
T11 construct: also called Biotin LRRC25-His; biotinylated LRRC25 protein
Kind of experiment: ELISA, 20 nM antibody, biotinylated antigen on streptavidin plate. Here is the method:
as §1

The target of experiment [12] is T6, LRRC25(96-115) biotin peptide. The experiment is described as above. Here is the method: as §1
Experiment [13] addresses T12, His-tagged human LRRC25 extracellular domain protein, human LRRC25-His (human, UniProt Q8N386 21-165).
T12 construct: The entry holds the extracellular domain, a GSG linker and the His tag; also called LRRC25(ECD)-HIS
In words: ELISA, plate-immobilized antigen. Here is the method: To establish the relative binding strengths of anti-LRRC25 antibodies against human LRRC25, and their cross-reactivity with cynomolgus monkey LRRC25, antibody binding curve analyses were performed and EC50 values against plate-immobilized recombinant human and cyno LRRC25 proteins were determined.
(§2) A typical ELISA was performed by coating overnight in PBS, pH 7.4, at 4° C. in high binding microtiter wells with 1 ug/mL/100 ul per well of human LRRC25-His or cyno LRRC25-His. An anti-human LRRC25 antibody (2A3, LS Bio, LS-C174039-100) and anti-HIS-HRP (Miltenyi Biotec; 130-092-783) served as coating controls for the human and cyno LRRC25 proteins, respectively. […] Anti-LRRC25 antibodies were added (100 ul per well) at 500 nM and serially diluted 3-fold in assay buffer (1% skimmed milk in PBS, pH 7.4). The plate was incubated with gentle agitation for 1 h at room temperature. The plate was washed 3× and HRP-conjugated secondary antibody in assay buffer added [100 ul per well; goat anti-human IgG (Jackson Immunoresearch, cat #715-035-150)], and the plate was incubated as before. Antibody bound to plate-immobilized LRRC25(ECD)-HIS was determined at A450 nm using HRP substrate (3,3′,5,5′-tetramethylbenzidine (TMB); eBioscience; 00-4201-56); 100 μl/well).

Experiment [14] has as its target T13, His-tagged cynomolgus monkey LRRC25 extracellular domain protein, cyno LRRC25-His (cynomolgus monkey).
T13 construct: The entry holds the extracellular domain, a GSG linker and the His tag
Kind of experiment: ELISA, plate-immobilized cyno LRRC25-His. Here is the method: as §2

Primed or numbered codes have the meaning given here. Biotin′ = not defined here

T11 sequence (Q8N386 other isoform, or with tags, fused parts or gaps): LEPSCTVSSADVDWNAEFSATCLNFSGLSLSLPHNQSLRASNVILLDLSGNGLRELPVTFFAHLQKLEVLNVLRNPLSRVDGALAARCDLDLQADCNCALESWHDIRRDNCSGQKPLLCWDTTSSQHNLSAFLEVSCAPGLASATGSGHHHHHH
T13 sequence (chain, as listed by the source limits assumed): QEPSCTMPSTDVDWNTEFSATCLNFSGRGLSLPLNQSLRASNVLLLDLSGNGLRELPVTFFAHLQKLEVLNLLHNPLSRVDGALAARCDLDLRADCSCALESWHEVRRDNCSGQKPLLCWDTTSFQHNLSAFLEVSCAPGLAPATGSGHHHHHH
T12 sequence (Q8N386 other isoform, or with tags, fused parts or gaps): as the sequence (Q8N386 other isoform, or with tags, fused parts or gaps) above

B1: anti-LRRC25 chimeric antibody 2G02 (antibody, human IgG4, V domains shown)
VH: QVTLKESGPGILQPSQTLSLTCSFSGFSLSTSGMGVSWIRQPSGKGLEWLAHIYWDDDKRYNPSLKSRLTISKDTSSNQVFLKITSVDTADTATYYCARRHRDYDSRGHWYFGVWGAGTTVTVSS
VL: DVVMTQTPKSMSMSVGERVTLSCKASENVGTYVSWYQQKPEQSPKLLIYGASNRYTGVPDRFTGSGSATDFTLTISSVQAEDLADYHCGQSYNYPFTFGGGTKLEIKR
Turning to B1, the binding result in experiment [1], in experiment [2], in experiment [3], in experiment [4], in [5] and in [6] was “no binding (tested: 20 nM)” throughout. Further, the binding result in experiment [7], in experiment [8], in experiment [9] and in [10] was “no binding (tested: 20 nM)” throughout. The “absorbance (A450)” value in [11] is 2.6 A450; in experiment [12] it was 0.049 A450.

B2: anti-LRRC25 chimeric antibody 1H09 (antibody, human IgG4, V domains shown)
VH: DVQLVESGGGLVKPGGSLKLSCAASGFTFSSYAMSWVRQTPEKRLEWVASISRGGNTYYPDSVKGRFTISRDNARNILYLQMSSLRSEDTAMYYCARGNYGNSPFAYWGQGALVTVSA
VL: DVVMTQTPASLAVSLGQRATISCRASESVDSYGNSFMHWYQQKPGQPPKLLIYLASNLESGVPARFSGSGSRTDFTLTIDPVEADDAATYYCQQNNEDPFTFGSGTKLEIKR
With B2, the binding result in experiment [1], in experiment [2], in [3], in experiment [4], in experiment [5] and in experiment [7] was “no binding (tested: 20 nM)” in each case. Besides, the binding result in experiment [8] was “no binding (tested: 20 nM)”; in [9] it was “no binding (tested: 20 nM)”; in experiment [10], “no binding (tested: 20 nM)”; in experiment [14], “no binding (tested: 500 nM)”. In addition, in experiment [13], the EC50 – broadly, the concentration that produces a half-maximal response – was 1.5 nM. The “absorbance (A450)” value turned out to be 0.564 A450 in [11] and 0.631 A450 in experiment [12].

B3: anti-LRRC25 chimeric antibody 1H04 (antibody, human IgG4, V domains shown)
VH: EVQLVESGGGLVKPGGSLKLSCAASGFTFSNSAMSWVRQTPEKRLEWVASISRGGKTYYPDSVKGRFTISRDNARNILYLQMSSLRSEDTAMYYCARGQELRLFAYWGQGTLVTVSA
VL: DIVMTQDAFSNPVTLGTSASISCRSSKSLLHSNGITYLYWYLQKPGQSPQLLIYQMSNLASGVPDRFSSSGSGTDFTLRISRVEAEDVGVYYCAQNLELPFTFGSGTKLEIKR
Consider B3, for which the binding result in experiment [1], in experiment [2], in [3], in [4], in experiment [5] and in experiment [7] was “no binding (tested: 20 nM)” in each case. For the same molecule, the binding result in [8] is reported as “no binding (tested: 20 nM)”; in [9] it was “no binding (tested: 20 nM)”; in experiment [10], “no binding (tested: 20 nM)”; in experiment [14], “no binding (tested: 500 nM)”. In experiment [13], this molecule had a concentration for a half-maximal effect (EC50) of 0.44 nM. Besides, the “absorbance (A450)” value in experiment [11] is 1.24 A450; in experiment [12], 2.58 A450.

(Values after patent US20220363752A1 (VERSEAU THERAPEUTICS, published 2022).)
